Series [1] deals with the molecule itself. Briefly: formation of multimer (light scattering); self-association. The procedure: The fluorescent protein was equilibrated with 50 mM HEPES (pH 7.5) and 150 mM KCl.
Series [2] deals with the molecule itself. As to the kind of experiment: molecular weight by light scattering (34 kDa).

Where a chain is given by its changes, count along the chain named. In names and notes the source's numbering stands.

B1: Azami-Green, fluorescent protein derived from Galaxea fascicularis (other)
chain: MSVIKPEMKIKLCMRGTVNGHNFVIEGEGKGNPYEGTQILDLNVTEGAPLPFAYDILTTVFQYGNRAFTKYPADIQDYFKQTFPEGYHWERSMTYEDQGICTATSNISMRGDCFFYDIRFDGVNFPPNGPVMQKKTLKWEPSTEKMYVRDGVLKGDVNMALLLEGGGHYRCDFKTTYKAKKDVRLPDYHFVDHRIEILKHDKDYNKVKLYENAVARYSMLPSQAK
notes: Expressed in E. coli with a C-terminal His-tag and purified on Ni-agarose; also called wild-type Azami-Green; fluorescent protein of the present invention derived from coral; not shown: C-terminal His-tag from the pET28 vector (NcoI/XhoI cloning)
Turning to B1, the binding result in series [1] is reported as “binds”.

B2: mAG, monomeric mutant of Azami-Green (V123T, Y188A, F190K) (other)
chain: B1 chain with V123T, Y188A, F190K
notes: also called modified monomeric fluorescent protein
Take B2: the binding result in series [2] was “no binding”.

These data come from patent US20050106661A1 (RIKEN, published 2005).
